Test results published in patent US20200010567A1 (NEURIMMUNE, published 2020).

Assays:
GA4: H-(GA)4HHHHHH-NH2 [1] = target: T1, GA4: H-(GA)4HHHHHH-NH2; experiment: indirect ELISA, His-tagged peptide coated at 50 ug/ml, antibody titrated [also D00025 FIG. 7H]
T1 peptide: H-GAGAGAGAHHHHHH-NH2
Description: (§1) 96-well microplates (Corning Incorporated, Corning, USA) were coated with dipeptide repeat protein peptides at a concentration of 50 μg/ml in coating buffer (15 mM Na₂CO₃, 35 mM NaHCO₃, pH 9.42). Non-specific binding sites were blocked for 1 h at room temperature with PBS/0.1% Tween®-20 containing 2% BSA (Sigma-Aldrich, Buchs, Switzerland). Primary antibodies were diluted to the indicated concentrations and incubated 1 h at room temperature, followed by incubation with a donkey anti-human IgG Fcγ-specific antibody conjugated with HRP (Jackson ImmunoResearch Laboratories, Inc., West Grove, USA). Binding was determined by measurement of HRP activity in a standard colorimetric assay. EC₅₀ values were estimated by non-linear regression using GraphPad Prism software (San Diego, USA).
(§2) High affinity binding was detected for poly-GA DPRs harboring 10 or 20 (GA)-repeats, reflected in an EC₅₀ in the subnanomolar or low nanomolar range (FIGS. 7A, 7C-7I).

GA3: H-(GA)3HHHHHH-NH2 [2] = target: T2, GA3: H-(GA)3HHHHHH-NH2; experiment: as above
T2 peptide: H-GAGAGAHHHHHH-NH2
Description: as §1, §2

GA2: H-(GA)2HHHHHH-NH2 [3] = target: T3, GA2: H-(GA)2HHHHHH-NH2; experiment: as above
T3 peptide: H-GAGAHHHHHH-NH2
Description: as §1, §2

(GR)15: H-C(GR)15-OH = target: T4, (GR)15: H-C(GR)15-OH; experiment: indirect ELISA, uncoupled peptide coated, antibody titrated [also D00014 FIG. 3I]
T4 construct: synthetic, not coupled to BSA; also called poly-GR DPR protein peptide
T4 peptide: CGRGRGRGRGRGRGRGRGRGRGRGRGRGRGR
Description: as §1, with “In brief, dipeptide repeat proteins were synthesized and purified by Schafer-N(Copenhagen, Denmark): (GA)₁₅: H-CHHHHHH(GA)₁₅-OH; (GP)₁₅: H-C(GP)₁₅-OH; (GR)₁₅: H-C(GR)₁₅-OH; (PA)₁₅: H-C(PA)₁₅-OH; (PR)₁₅: H—C(PR)₁₅-OH. DPR protein peptides were then conjugated via a bifunctional linker (SMCC) to bovine serum albumin (BSA). 96-well microplates” for “96-well microplates”, “coated with BSA-coupled or -uncoupled dipeptide repeat” for “coated with dipeptide repeat”, “concentration of either 5 μg/ml or 20 μg/ml in” for “concentration of 50 μg/ml in”

GA10: H-(GA)10HHHHHH-NH2 = target: T5, GA10: H-(GA)10HHHHHH-NH2 (C-terminal amide); experiment: indirect ELISA, His-tagged peptide coated at 50 ug/ml, antibody titrated [also D00024 FIG. 7F]
T5 peptide: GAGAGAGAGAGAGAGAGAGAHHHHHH
Excerpt: (§3) In brief, dipeptide repeat proteins were synthesized and purified by Schafer-N (Copenhagen, Denmark): GA₂₀: H-(GA)₂₀HHHHHH-NH₂; GA₁₀: H-(GA)₁₀HHHHHH-NH₂; GA₆: H-(GA)₆HHHHHH-NH₂; GA₅: H-(GA)₅HHHHHH-NH₂; GA₄: H-(GA)₄HHHHHH-NH₂; GA₃: H-(GA)₃HHHHHH-NH₂; GA₂: H-(GA)₂HHHHHH-NH₂; GP₂₀: H-(GP)₂₀HHHHHH-NH₂; GP₁₀: H-(GP)₁₀HHHHHH-NH₂; GP₆: H-(GP)₆HHHHHH-NH₂; GP₅: H-(GP)₅HHHHHH-NH₂; GP₄: H-(GP)₄HHHHHH-NH₂; GP₃: H-(GP)₃HHHHHH-NH₂; GP₂: H-(GP)₂HHHHHH-NH₂. GR₂₀: H-(GR)₂₀HHHHHH-NH₂; GR₁₀: H-(GR)₁₀HHHHHH-NH₂; GR₆: H-(GR)₆HHHHHH-NH₂; GR₅: H-(GR)₅HHHHHH-NH₂; GR₄: H-(GR)₄HHHHHH-NH₂; GR₃: H-(GR)₃HHHHHH-NH₂; GR₂: H-(GR)₂HHHHHH-NH₂; PA₂₀: H-(PA)₂₀HHHHHH-NH₂; PA₁₀: H-(PA)₁₀HHHHHH-NH₂; PA₆: H-(PA)₆HHHHHH-NH₂; PA₅: H-(PA)₅HHHHHH-NH₂; PA₄: H-(PA)₄HHHHHH-NH₂; PA₃: H-(PA)₃HHHHHH-NH₂; PA₂: H-(PA)₂HHHHHH-NH₂; PR₂₀: H-(PR)₂₀HHHHHH-NH₂; PR₁₀: H-(PR)₁₀HHHHHH-NH₂; PR₆: H-(PR)₆HHHHHH-NH₂; PR₅: H-(PR)₅HHHHHH-NH₂; PR₄: H-(PR)₄HHHHHH-NH₂; PR₃: H-(PR)₃HHHHHH-NH₂; PR₂: H-(PR)₂HHHHHH-NH₂. 96-well microplates (Corning Incorporated, Corning, USA) were coated with dipeptide repeat protein peptides at a concentration of 50 μg/ml in coating buffer (15 mM Na₂CO₃, 35 mM NaHCO₃, pH 9.42). Non-specific binding sites were blocked for 1 h at room temperature with PBS/0.1% Tween®-20 containing 2% BSA (Sigma-Aldrich, Buchs, Switzerland). Primary antibodies were diluted to the indicated concentrations and incubated 1 h at room temperature, followed by incubation with a donkey anti-human IgG Fcγ-specific antibody conjugated with HRP (Jackson ImmunoResearch Laboratories, Inc., West Grove, USA). Binding was determined by measurement of HRP activity in a standard colorimetric assay. EC₅₀ values were estimated by non-linear regression using GraphPad Prism software (San Diego, USA).

GA4: H-(GA)4HHHHHH-NH2 [4] = target: T1, GA4: H-(GA)4HHHHHH-NH2; experiment: as above
Excerpt: as §3

GA3: H-(GA)3HHHHHH-NH2 [5] = target: T2, GA3: H-(GA)3HHHHHH-NH2; experiment: as above
Excerpt: as §3

GA2: H-(GA)2HHHHHH-NH2 [6] = target: T3, GA2: H-(GA)2HHHHHH-NH2; experiment: as above
Excerpt: as §3

B1: NI-308.28G1 (antibody, V domains shown)
VH: QVQLQESGPRLVKPSETLSLTCTVAGGSVNSYYWTWIQQSPGKGLEWLGRIYIAGRTNYNPSLTSRIALSVDTSRNQLSLKLTSVTAADTAIYYCARWGAESGDYYYGVDVWGPGTLVTVSS
VL: EIVMTQSPLSLPVTPGEPASISCKSSEGLLHSNGYTYLDWYLQKPGQAPQLLIFLASNRAAGVPDRFSGSGSGTDFTLKISRVEAEDVGVYYCMQAIQSPWTFGPGTKVEIK
notes: Recombinant complete human IgG1, kappa
B1: no binding (tested: about 4x10^5 pM (last point)) (GA4: H-(GA)4HHHHHH-NH2 [1]); no binding (tested: about 4x10^5 pM (last point)) (GA3: H-(GA)3HHHHHH-NH2 [2]); no binding (tested: about 4x10^5 pM (last point)) (GA2: H-(GA)2HHHHHH-NH2 [3]).

B2: NI-308.6B11 (antibody, V domains shown)
VH: EVQLVQSGAEVKRPGASVKVSCKVSGYTLTELSMHWVRQAPGKGLEWMGGFDPEDGETVYAQKFQGRVTMTEDTSTDTAYMELSSLRSEDTALYHCATYGSSWHWNEGNEGSYYFDYWGQGTLVTVSS
VL: CDIQMTQSPSSLSASVGDRVTITCQASQDISIYLNWYQQKPGKAPKLLIYDASNLETGVPSRFSGSGSGTDFTFTISGLQPEDVARYYCQQYDDLPITFGQGTRLEIK
notes: as for B1
B2 gave an EC50 ((GR)15: H-C(GR)15-OH) of 1.3 nM.

B3: NI-308.15O7 (antibody, V domains shown)
VH: QVQLVESGGGVVQPGRSLRLSCAASGFTFSNHAMHWVRQAPGKGLEWVAVISYDGENTYYADSIEGRFTISRDNFKNTLFLQMYSLTADDTAMYFCARGGRRGHFTSYYLDYWGQGTLVTVSS
VL: CDIQMTQSPSSLSASVGDRVTITCRASQNIDKYLNWYQQIPGKAPKLLIYAASSLHSGVPSRFSGSGSGTDFSLTISSLQPEDFAIYYCQQSYSSFRTFGQGTKLEIK
For B3, the EC50 (GA10: H-(GA)10HHHHHH-NH2) was 0.37 nM, the binding result (GA4: H-(GA)4HHHHHH-NH2 [4]) was “no binding (tested: about 4x10^5 pM (last point))” and the binding result (GA3: H-(GA)3HHHHHH-NH2 [5]) was “no binding (tested: about 4x10^5 pM (last point))”. B3: no binding (tested: about 4x10^5 pM (last point)) (GA2: H-(GA)2HHHHHH-NH2 [6]).
